# Assay results reported in doi:10.1101/2023.02.09.527830.
# “And” between values parts separate entries of the source, which are not always exact repeats. Identical values can stand only once.
# Columns and labels:
# [1] = molecular target: Lassa virus nucleoprotein (NP), AV strain (Lassa virus (AV strain)); assay: native MS
# [2] = molecular target: Lassa virus Z protein, AV strain (Lassa virus (AV strain)); assay: native MS
# [3] = molecular target: Lassa virus nucleoprotein (NP), AV strain (Lassa virus (AV strain)); assay: SEC
# [4] = molecular target: Lassa virus nucleoprotein (NP), AV strain (Lassa virus (AV strain)); assay: native MS; remark: listed apart in the source
# [5] = molecular target: Lassa virus nucleoprotein (NP), AV strain (Lassa virus (AV strain)); assay: negative-stain electron microscopy
substance,measurement,setting,value
"Lassa virus Z protein, AV strain (natural protein)",Kd,[1],30 µM
same,stoichiometry N,[1],< 3
same,stoichiometry N,[2],< 6
"Lassa virus nucleoprotein (NP), AV strain (natural protein)",stoichiometry N,[3],3
same,stoichiometry N,[1],2 and 3
same,stoichiometry N,[4],4 and 5 and 6
same,stoichiometry N,[5],3
